Test results: the RNAGym collection of RNA variant scans (doi:10.7554/elife.80360)

B1: CPEB3 Ribozyme (parent)
chain: GGGGGCCACAGCAGAAGCGUUCACGUCGCGGCCCCUGUCAGAUUCUGGUGAAUCUGCGAAUUCUGCUGU

Variants of: B1
Assay: self-cleavage, relative activity (ratio to wild type); higher = more cleavage; co-transcriptional

Variant	self-cleavage
U36G U44C	0.118
U38A C57G	0.297
U38A C45U	0.918
U38A C45A	0.875
U36G U69C	0.493
U36G U69G	0.45
U38A A60U	0.453
U36G C63A	0.147
G37A G68C	0.371
G37A G41U	0.219
U36G G47U	0.148
G37A A52C	0.282
G37C U44G	0.211
G37C U44A	0.27
U36G U46G	0.181
U36G U46A	0.349
G37U A52C	0.281
U36G U67G	0.252
G37U U62C	0.299
G37A C45A	0.23
G37A A60U	0.193
G37A A60C	0.274
G37A A42G	0.189
G37U G58A	0.17

Variant	self-cleavage
U36G U38A	0.214
G37A U62G	0.318
G37A U44A	0.277
U36G A40U	0.259
U36G U55C	0.177
U36G U55G	0.245
U36C U69A	0.996
G37C U38G	0.25
G37C G56C	0.223
G37A A59U	0.215
U36G C54G	0.137
U36G C54A	0.186
U38A G41U	0.795
U38A G41A	0.718
U36G A42U	0.256
U36G A42C	0.221
U36G C45U	0.232
U36G U62G	0.238
U36G U62A	0.131
G37U U69G	0.354
G37U U69A	0.358
U38A A52C	0.898
G37C A60G	0.237
G37U G65C	0.228

Variant	self-cleavage
G37A U64C	0.312
G37C U62C	0.276
U36G G58U	0.193
G37C G48C	0.226
G37C A42C	0.237
G37C A42G	0.213
G37C U49A	0.307
G37U U44C	0.188
U36C U67C	0.981
U36C U67A	0.926
G37A A51G	0.332
G37A A51C	0.334
U36G G48U	0.196
G37U C39G	0.214
G37U C39A	0.273
G37C A51G	0.205
G37U C45A	0.295
U36G U61G	0.179
U36G U61C	0.139
G37A C63G	0.258
G37U U61A	0.263
G37A U69A	0.422
G37A U69G	0.538
G37U C54U	0.332

Variant	self-cleavage
G37U A40U	0.257
G37A G56U	0.257
G37A G56A	0.249
G37A U61C	0.149
G37A U61G	0.221
U36C U62C	0.528
G37C U67A	0.274
G37C U67G	0.188
U38A C39A	0.748
U38A C39G	0.994
G37C U46G	0.25
G37C U46A	0.236
U36G U49A	0.237
U36G U49G	0.197
G37U A59G	0.412
G37U A59C	0.218
G37U G50A	0.284
G37U G50C	0.315
G37A G58U	0.247
G37A G58A	0.289
G37C U69C	0.428
G37C U69A	0.336
U36G C57A	0.236
U36G C57U	0.184

Variant	self-cleavage
U36G A60C	0.206
U36G A60G	0.209
G37C A59U	0.242
U38A A51C	0.908
U38A A51G	0.89
U36G G56C	0.284
U36C U61G	0.601
U38A G50A	0.952
U38A A42C	0.892
U38A A42G	0.755
G37A C66A	0.227
G37A C66G	0.265
G37A U53A	0.303
G37A U53G	0.222
G37C C54G	0.164
G37C A52U	0.254
G37U U55A	0.187
G37A U49C	0.303
G37A U49A	0.285
G37A G50A	0.304
G37U C57G	0.209
G37U C66U	0.245
U36G G65U	0.0921
U38A	0.929

Variant	self-cleavage
U36G G68U	0.338
U36G G68C	0.436
U36G G68A	0.214
U36G	0.239
G37C G47C	0.18
G37C G41C	0.126
G37C G41A	0.245
U36G U64A	0.254
G37U U53A	0.195
G37U A51U	0.252
G37U A51G	0.266
G37U A51C	0.234
G37U G41U	0.201
G37U U43G	0.298
G37A C39G	0.277
U36C U64A	0.713
G37C G65C	0.255
G37A U55G	0.234
G37A G48C	0.265
G37A G48A	0.357
G37C U64C	0.162
G37C U64A	0.267
G37C U43G	0.202
G37A U67C	0.321

Variant	self-cleavage
G37A U67G	0.334
G37U G47A	0.324
G37C U53G	0.129
G37C U53C	0.284
G37U G48C	0.326
U36G U53A	0.273
U36G U53G	0.214
G37C C45G	0.346
G37U G68U	0.375
U38A A40G	0.808
U38A A40C	0.703
U36G G50C	0.231
U36G G50A	0.214
G37U U64G	0.227
U38A C54A	0.797
U38A C54G	0.8
G37A C54G	0.221
U36G A51G	0.179
U36G A51U	0.117
U36G A51C	0.25
G37U A60C	0.224
G37U A60U	0.195
G37U A60G	0.208
